# Data published in the RNAGym collection of RNA variant scans (doi:10.1073/pnas.2313332121).
# B1: TPR t1 (parent)
# chain: GACCAAUCUGCCCUCAGAGCUCGAGAACAUCUUCGGAUGCAGAGGAGGCAGGCUUCGGUGGCGCGAUAGCGCCAACGUCCUCAACCUCCAAUGCAUCCCACCACAUGAUGAUGCCUGAAGAGCCUUGGUUUUUUG
# Variants of: B1
# Assay: polymerase ribozyme fitness, log enrichment relative to wild type (log ratio); higher = more active; in vitro selection for triplet polymerase activity
# Method in brief: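 Input and output libraries were sequenced on Illumina after a single in vitro selection round, run in triplicate on PCR-built, transcribed mutant libraries of each subunit of a heterodimeric triplet polymerase ribozyme. Selection annealed libraries to a biotinylated primer, the partner subunit and triplets, incubated them frozen at −7 °C, then gel-excised extended constructs for streptavidin-bead capture and RT-PCR. Genotypes with ≥10 input reads and ≥1 read per output were kept. Fitness is the logarithm, taken in base 2, of genotype enrichment divided by wild-type enrichment, using inverse-variance-weighted replicate averages.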
row,Variant,polymerase ribozyme fitness (log ratio)
1,U38C G44U A111G U133G,-1.11
2,G39A C72A A91U C94A,-2.84
3,G39C C89U C115G C123A,-4.39
4,G39A G42U C72A,-1.57
5,C40A A43C G120C U130A,-2.63
6,G39U G63U,-1.63
7,G39C C56G,-1.53
8,G39U G52U C70U,-2.08
9,G39U G52C C53A A83U,-3.01
10,G39U A84C G122A C123A C124A,0.979
11,G39U C56A A84C G113U,-4.13
12,G39C G48U G57C,-1.92
13,G39U G122A,-1.25
14,C40A A41U A43U G44C,-3.15
15,G39U C114U G120A G127C,-2.98
16,G39C G71C C86U,-2.13
17,U38G G61U,-0.532
18,G39U C86A U106A,-2.01
19,G39A G42A,-2.67
20,C40A C56G G61A,-4.03
21,G39A A50G C79A,-2.95

row,Variant,polymerase ribozyme fitness (log ratio)
1,U38C G71A,-1.37
2,G39C G61C A83G,-3.89
3,G39A G61U,-0.116
4,G39A G63A,-1
5,G39A U112A,0.854
6,G39U C64U,-0.207
7,G39U G52A G63U,-2.37
8,G39U C80U C101A A111U,-5.03
9,G39U C40A A43G C56G C104U U130C,-4.61
10,G39A G57U C80A A121C,0.47
11,G39A G51A C64U U78C,-3.91
12,C40A C56A C73U A84C,-2.23
13,U38G G52U,-2.27
14,U38C U54A G77A U96A G120A,-4.19
15,G39U C86U,-1.64
16,G39C G69C,-2.22
17,U38G U54G,-0.407
18,U38G U54A,-0.658
19,G39U A95U,-1.27
20,G39A C49U U78C,-1.72
21,U38G U55G A121C,1.28

row,Variant,polymerase ribozyme fitness (log ratio)
1,G39A G51U A83G A95C,-3.53
2,G39U G61A C85U,-0.878
3,G39U C53G U116C,-2.62
4,G39A G113C,-2.69
5,C40A A46U C114A,-4.55
6,G39A G60C G113C C115A,-4.37
7,G39U A84U,-1.03
8,G39U U92A G110U U132A,-5.12
9,U38C G71C C82A A83U A90G,-2.39
10,U38C G45A U54A A83C G120U,-0.856
11,G39U C62U C99U,-5.08
12,G39A C72G G113A,-2.17
13,C40A A41U G57C C104U C114U,-3.33
14,G39A C40A G45U,-4.88
15,G39A G71A C82U U87C U132C,-1.47
16,G39U C62U C115G,-1.99
17,G39A G51U A83G A95C C124A,-2.8
18,G39C G69A C115U G120A,-6.08
19,G39U C40G U106A U109A G120C,-5.48
20,G39A C64U,0.0887
21,G39A C49U G57A A84U C97U G120C C124U G128U U132A,-2.74

row,Variant,polymerase ribozyme fitness (log ratio)
1,G39C A50U G61A,-1.4
2,G39A A95G C115A,-0.556
3,G39U G60C,-0.892
4,G39A G63C C72A,-4.54
5,U38G U87A A95C,-1.01
6,U38C G44U A91U G120U,-2.19
7,G39A G44A U78C,-1.89
8,G39U A46G G63A C115G,-1.83
9,U38G C79G,-2.67
10,G39A C72G,-0.976
11,U38C C64A,-6.78
12,G39A G113C C124G,-1.58
13,U38G G39U U54G G69U U87A G113C,-4.25
14,G39A G93A,-2.02
15,G39U C98U,-1.66
16,G39C U54A,-0.125
17,C40A C49U,-2.52
18,U38G A83G,-1.98
19,G39U U87C,-0.0295
20,G39C A66C,-1.94
21,G39A G44A C62G U78C,-6.69
